Columns and labels:
human IGF-I receptor = biological target: T1, human IGF-I receptor (human, UniProt P08069 31-1367); assay: Cell ELISA, fixed cells expressing the receptor
T1 construct: Expressed on transfected P3U1 or HEK 293T cells, or native on human myoblasts; also called hIGFIR; IGF-I receptor of human (NP_000866)
Description: (§1) In ELISA, antibody solutions (30 μL) adjusted to predetermined concentrations with 0.1% skimmed milk/3% BSA/PBS were added to respective wells and were subjected to reaction at room temperature for about 1 hour. After washing with a washing liquid (tris buffer containing Tween) twice, anti-mouse-IgG antibody-ALP conjugate solutions (30 μL) adjusted to predetermined concentrations with 0.1% skimmed milk/3% BSA/PBS were added to respective wells and were subjected to reaction at room temperature for about 1 hour. After washing with a washing liquid twice, 100 μL of a substrate (PNPP) was added to each well to start the reaction.

[1] = biological target: T2, Substitution 1 of the CR domain (human IGF-I receptor D245N/A247T, FLAG tag) (human, UniProt P08069 31-1367); assay: Cell ELISA, 1 nM antibody, fixed HEK 293T cells
T2 construct: Expressed on transfected HEK 293T cells
Description: (§2) On the next day, each plasmid DNA was transfected into the cells by lipofection. On the following day, the HEK 293T cells were detached with 0.25% trypsin/EDTA and were suspended in a broth. The HEK 293T cells were added to a 96-well plate (coated with poly-D-lysine) at a concentration of 0.8×10⁵ cells/well and were incubated at 37° C. under conditions of 5% CO₂ overnight. The medium was removed from the 96-well plate, and the cells were immobilized with a 10% buffered formalin (Mildform® 10 NM, Wako). The 10% buffered formalin was replaced with a blocking buffer (3% BSA/PBS/sodium azide), and the plate was used in ELISA.
(§3) After washing with a washing liquid twice, anti-mouse-IgG antibody-HRP conjugate solutions (50 μL) adjusted to predetermined concentrations with 0.1% skimmed milk/3% BSA/PBS were added to respective wells and were subjected to reaction at room temperature for about 1 hour. After washing with a washing liquid twice, 100 μL of a substrate (TMB) was added to each well to start the reaction. After about 30 minutes, 100 μL of 0.5 M sulfuric acid was added to each well to stop the reaction, and the absorbances at 450 nm was measured. The value of the absorbance at 450 nm was evaluated as the avidity.

[2] = biological target: T3, Substitution 2 of the CR domain (human IGF-I receptor E294D, FLAG tag) (human, UniProt P08069 31-1367); assay: Cell ELISA, 1 nM antibody, fixed HEK 293T cells
T3 construct: Expressed on transfected HEK 293T cells
Description: as §2, §3

[3] = biological target: T4, wild-type human IGF-I receptor (FLAG tag, Example 7) (human, UniProt P08069 31-1367); assay: Cell ELISA, 1 nM antibody, fixed HEK 293T cells
T4 construct: Expressed on transfected HEK 293T cells
Description: as §2, §3

[4] = biological target: T5, Substitution 3 of the CR domain (human IGF-I receptor G315S/S316T, FLAG tag) (human, UniProt P08069 31-1367); assay: Cell ELISA, 1 nM antibody, fixed HEK 293T cells
T5 construct: Expressed on transfected HEK 293T cells
Description: as §2, §3

[5] = biological target: T6, wild-type rat IGF-I receptor (FLAG tag, Example 7) (rat, UniProt P24062 31-1370); assay: Cell ELISA, 1 nM antibody, fixed HEK 293T cells
T6 construct: Expressed on transfected HEK 293T cells
Description: as §2, §3

human insulin receptor = biological target: T7, human insulin receptor (human, UniProt P06213 28-1382); assay: Cell ELISA, fixed HEK 293T cells expressing the receptor
T7 construct: whole, on cells; Expressed on transfected HEK 293T cells; also called INSR; hINSR
Description: The HEK 293T cells after the lipofection were added to a 96-well plate (coated with poly-D-lysine) at a concentration of 0.8×10⁵ cells/well (about 180 μL/well) and were immobilized with 10% buffered formalin (Mildform® 10 NM, Wako), followed by blocking with phosphate buffer containing 3% BSA. The plate was used in ELISA.
as §1

T6 sequence (P24062 other isoform, or with tags, fused parts or gaps limits assumed): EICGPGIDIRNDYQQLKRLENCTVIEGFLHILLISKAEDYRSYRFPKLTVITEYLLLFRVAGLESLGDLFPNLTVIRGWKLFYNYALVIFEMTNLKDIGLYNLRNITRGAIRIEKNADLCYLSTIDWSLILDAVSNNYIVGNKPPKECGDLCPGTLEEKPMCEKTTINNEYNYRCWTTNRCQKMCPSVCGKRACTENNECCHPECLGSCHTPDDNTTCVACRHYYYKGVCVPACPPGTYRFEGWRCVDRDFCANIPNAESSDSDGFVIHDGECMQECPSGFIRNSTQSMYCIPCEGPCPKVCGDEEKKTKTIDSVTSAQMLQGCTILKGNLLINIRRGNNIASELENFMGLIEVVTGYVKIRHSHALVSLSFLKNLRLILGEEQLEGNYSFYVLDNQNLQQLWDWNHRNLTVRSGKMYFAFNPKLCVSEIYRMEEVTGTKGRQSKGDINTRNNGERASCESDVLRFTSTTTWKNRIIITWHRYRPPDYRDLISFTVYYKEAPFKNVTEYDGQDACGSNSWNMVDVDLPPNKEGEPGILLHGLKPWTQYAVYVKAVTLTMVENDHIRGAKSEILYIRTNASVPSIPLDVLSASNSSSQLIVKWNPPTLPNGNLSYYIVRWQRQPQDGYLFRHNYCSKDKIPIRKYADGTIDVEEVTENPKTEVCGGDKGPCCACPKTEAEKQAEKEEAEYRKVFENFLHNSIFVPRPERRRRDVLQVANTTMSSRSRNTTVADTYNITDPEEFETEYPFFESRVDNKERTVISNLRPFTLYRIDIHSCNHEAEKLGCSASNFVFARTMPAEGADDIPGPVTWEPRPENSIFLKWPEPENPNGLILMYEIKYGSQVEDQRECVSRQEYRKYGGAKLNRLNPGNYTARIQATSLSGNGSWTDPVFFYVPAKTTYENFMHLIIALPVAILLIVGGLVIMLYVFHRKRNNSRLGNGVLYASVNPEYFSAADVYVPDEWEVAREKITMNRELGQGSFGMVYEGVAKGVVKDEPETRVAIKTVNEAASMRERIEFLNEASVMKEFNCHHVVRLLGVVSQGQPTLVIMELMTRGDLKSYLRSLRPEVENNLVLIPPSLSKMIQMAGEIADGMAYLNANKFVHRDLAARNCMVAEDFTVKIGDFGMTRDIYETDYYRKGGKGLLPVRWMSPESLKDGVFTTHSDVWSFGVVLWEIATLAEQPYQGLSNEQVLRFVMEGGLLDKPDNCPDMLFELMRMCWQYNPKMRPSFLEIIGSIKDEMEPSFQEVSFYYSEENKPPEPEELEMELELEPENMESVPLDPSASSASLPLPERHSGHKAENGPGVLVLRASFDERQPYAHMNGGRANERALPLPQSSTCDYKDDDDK

B1: IGF11-16 (antibody, mouse IgG1, kappa, V domains shown)
VH: QIQLQQPGAELVKPGASVKLSCKAPGYTFTSYWMHWVKQRPGQGLEWIGETNPSNSVTNYNEKFKSKATLTVDKSSSTAYMQLSSLTSEDSAVYYCTIGRGRGFAYWGQGTLVTVSA
VL: DIQMNQSPSSLSASLGDTITITCRASQNINFWLSWCQQKPGNIPKLLIYKASNLHTGVPSRFSGSGSGTDFTLTISSLQPEDIATYYCLQGQSYPYTFGGGTKLEIKR
notes: no cleavage site is stated; also called IGF-I receptor agonist antibody; IGF11-16 antibody
**Q.** With B1 as the binder, how does the “avidity (absorbance difference 405-550 nm, Mock cells = 1) at 0.5 nM” value (human IGF-I receptor) read?
**A.** 2.9 fold of Mock cells

**Q.** What about the “avidity (absorbance difference 405-550 nm, Mock cells = 1) at 5 nM” value (human IGF-I receptor) of the same binder?
**A.** 3.7 fold of Mock cells

**Q.** What about the “absorbance at 450 nm” value [1] of the same binder?
**A.** ≥ 2 absorbance at 450 nm

**Q.** And the “absorbance at 450 nm” value [2]?
**A.** ≥ 2 absorbance at 450 nm

**Q.** And the “absorbance at 450 nm” value [3]?
**A.** ≥ 2 absorbance at 450 nm

**Q.** What about the “absorbance at 450 nm” value [4] of the same binder?
**A.** ~1 absorbance at 450 nm

**Q.** And the “absorbance at 450 nm” value [5]?
**A.** ~1 absorbance at 450 nm

**Q.** What about the “avidity (absorbance difference 405-550 nm, Mock cells = 1) at 0.5 nM” value (human insulin receptor) of the same binder?
**A.** 1.1 fold of Mock cells

**Q.** And the “avidity (absorbance difference 405-550 nm, Mock cells = 1) at 5 nM” value (human insulin receptor)?
**A.** 1.4 fold of Mock cells

Source: patent US20200115460A1 (TEIJIN PHARMA, published 2020)
